Measurements reported in the domain aggregation screens of Martell et al. (2025).

Experiment: soluble fraction after stress (log2 fold change); higher = more stays soluble; pooled small domains, quantitative proteomics
Details: stress: 75 degC
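Also: 20 min heating vs room temperature control held 20 min.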

Sequence | soluble fraction (log2)
HMQNAMQKELIDAFQKAYPDLDITKIELVYGTYYEVEAMNSTTEFTYRYDQNSKTFILAEQDNADP | -0.203
HMQNELAEARSQLAERKNIDQAKLILMKKRNISEPEAYKLLRSHAMQTNRRVAEVAESIITAESLLG | -0.0692
HMQNGNLVDVYLNWRGKYYAIKMFFPNSKMPRRSDVQDQIVKVYPDARVQSFQVSKYVPGQPFL | -2.62
HMQNLSELAYVNLRDALMQGQMKPGEELPLRPISRSFGISATPMREALLRLVTESALEMDSRGRISVP | -0.347
HMQNPYDTLGVSRDSTDAEIKKAYRKLAMEHHPDKGGDSQRFAEINNAYDNIKDMSSRQNFENDPSNFQ | 0.266
HMQNVFARKNLTSVSVDKLGEEEILLFKQSFESKNLTSSEALRDLSKKGMSEAELRKLKVRLTQL | -0.287
HMQNWFADPKFEMFEDYGDAQSFYDTETKNIYVVMAEYGQKGSNTIQEITPDSEEYIPNYEKYKEYMENK | 0.214
HMQNYLEFIGNELKALTSIPSPSGYTKDVAAYLMKTLSDMGYEPQLSNKGNVFVTIGGEGNPLVLAAHVD | 0.0285
HMQNYLEVLRLHELGMGQRKIAQQVHTSRDTIRKIIAIAENQGLNYSNLIGKTDNELSKVFG | -0.622
HMQPAGEGAILRYLSSGAVKGIGPVMAREIVRRFGTDTFRVMEQEPEKLLKVKGITEQRLQTIMESYQD | -0.198
HMQPDPAFVAWVDANPWYKENRTLRALVHDYAEEVKRQEPALIGTAFLDRVKQLVQSEHPELFD | -0.234
HMQPETIEDATNLYLEAARATLQLIEQNNVIARDVKRLLEHLDNDMARIETLLAEMLSRRDHWLRHIH | 0.148
HMQPIQPNQAKYLDGLSSKYKGKGNHSQAAQLTALRDALNAGDHAKAREIYDKLDYEPQAEAAH | 0.364
HMQPNVTRERILAAAMTVFAQKGWQKTSLDEVAAAAGMTKGAIYWHFRNKNDLFFALLDARLQRD | -2.16
HMQQAVTMQKPGRLLRNADGNGGAVRDLDVGMMLYPTGNRSELMWEVDDELGNRGWVNSTLFGLS | 0.013
HMQQDGSSSLGENMLNQELQARGVVPSEIPQEVWERVIQEAGKKSKREIYADIGLGRSLAAGFAQRLAA | 0.145
HMQQDVLKLKSGGNYKGEYINIESAYVLFKPEGGNATQRIKVNEIQMLKLADGTEVIFGGRVK | -0.237
HMQQEPNFYIVDGNTNQIVDRYYAPDSNVAHQYLGQWRQQHDPQETGNYRYGRLSSETEERYRNLAA | 0.22
HMQQFGANVRLIRKARQMSIKQLSELSGVSQTMISEVERGLKIPTIDVAGKIAAALGIDLTNLMG | -2.16

Sequence | soluble fraction (log2)
HMQQIQILPDGKIKLPDLSGTNMREAIEILHKGGLRMKPYGSGNAYQQKPAAGETVASGTTVEVLSL | 0.151
HMQQLAEQIPTDRPYISIAEAVVLFGISRDTIYRQIRKGNIPAVNLGERLTRISRIHIEAMFPKV | -0.305
HMQQNYREMHKVKKGETLFGIARRYEITVDQLIKANPDMNAVGYELKKGDYIFIPYPDGQKP | -0.427
HMQRAEQLPAELAAVFRAETEAWGFFERQPPGYQRVAIHWVASAKQEATRLRRLAKLIEESAAGRR | -1.61
HMQRDTIAISAIPTAIKTYLSSTYPTDTLVHAFVNKDQSIVVISKNIDFYATSFSTANAFIKRIQLPA | -1.41
HMQRFIHITVSDVHQATRLLEEEMQLTNYSVAENNAIKIFEFTYEPQEINHLFGKNGIEVSSLFIGS | -0.0559
HMQRNLILKLDTDQPEIYKKLESIFVEINGLLVPFFIEKIIWSKQDSLNILFKNSSEALVEQLIGKNVFLP | 0.2
HMQRSVNYSELHEIKERVFDALYSSPMSMPDLLAWLKGDEEHTISVIRLMQDNGDIEMGEDGRLAVV | -0.383
HMQSISLEEAKSAALDDAQLGIDEVEFLKTERNTDGDTSYYDIQFLVNGTIYKYQINTETGAILHVDYEA | 0.0632
HMQSITAGDKVRVKNYTVSGGKKRGKVYGGAGTFVVYYEKYDVISVTGDRVVIGIGKAVTAAVHIDDLEK | -2.07
HMQSKSEINELPKSIHMAFSPKNFELFIDNLKINEIDFSNWKGELNTIQERVDGQRQIWIQDPQGYWIEIN | -0.0964
HMQSLIVPVPKPEDDPVYKDGIKQDPVEVVSIWLGRDYLNMILNLKVSTGKGHTFGIVEDVS | -0.157
HMQSNDTAEIEAVVKEIMAANERVVNDYRSGNTKVVSFFVGQVMKATKGKANPKVVNEVLAKLLK | -0.823
HMQSVPELDQQFKIAIENNDFIKLAQLKEQGYHPSKEVMQSLSNTTPNNTIIAVQKIFGLKA | 0.546
HMQSVSANSVQKQLADIIDGEDKTHPLSDRELTEKLVAQGVQISRRTVAKYREAMGIPGASGRKQ | -0.0543
HMQTAAANPSPESILQAREAAGLSQSEAGALIYSGLRSWQHWEWGTRRMHPGLFELFLKKTGQI | -1.83
HMQTKMVYSDLVNSIKSEQVSSMLVSGNTVTVTLTNGDKAKVKIPSLDTLQADVGKEMNDQMDKGTLKQE | 0.18
HMQTKNYVYFNNTENWSTVNVYVWSSKDSTYMSWPGKAMESIGNNTYRFELPNGAEYAIFNNGSAQTVD | -0.335
HMQTKSDMVYHRVREDIVNGVFAPGERLLISAVAKQYGVSEIPVREAFRVLSQEGFLKTRPNSGFVVS | -0.44

Sequence | soluble fraction (log2)
HMQTMTAGERREAILRELEQAQGPVSASALAKRFHVSRQAVVGDVAMLRALNSPIAATPRGYVLTR | -0.322
HMQTMTDDQVMQYVISQQEKGATQQDIVSKLLQKGVTVDQMRRIRKKYEAQQSQPGALDLTGSS | 0.654
HMQTNEAIINQAVQAAEAQNITTRSQAVDALKANGMTEAQARQLAVQRGISYDQLINELFPME | 0.0149
HMQTPVTVGDTMPNLIGTPKRLLLELLNRTDITVKLTGDGYVTAQSPAAGTPIAKGMIIELSL | -2.17
HMQTQVEVLVKYVLEDGTVYKEDKVSADIGAILDSGDLPMLSNDMKFIDDFLFYEVKESDNVIERKVAKLV | -0.782
HMQTQYIVDTKTTLLVRTGPGKSNSQFGRLKNGETINVYAIKNGWAEISYNGKTGYVSEQYIKLA | -3.59
HMQTTDTGAIETIVDELMAANPDKVEAYRGGKTGLQGFFMGQVMKQLGGQGNPKVISAIVTEKLE | 0.603
HMQTTPAGHELLIRYFANGNIRERGMMKDGKRNGIWIFYDESGMEIRKTKYKMGKIISDYDLN | -2.6
HMQTTQQLIRNLRLKQAATLLADKRHSITEVATLTGFTHPTYFATAFREMFGVSPSEYMEQHI | -1.49
HMQTYNQLKRGMTEWIQAGQKQKAYELFAGVAGQLSLSSAAGKKQYNELVTILNRAGFGIPLE | -1.12
HMQVEMVLSQEAHEWLLQRGFIPEYGAREMDRVIAAHLKPLLMREILFGTLKAGGKVRVQVENGALKLQP | -3.08
HMQVLSESDVEDIKAISGGDKAYDNLMEWAGSKLSKQDAKDYDDVLATGNKTAITFAVKALMAQYENAN | -0.198
HMQVPFGFQRNPSTGTLEEKAEEQLIINQVLSLKNSGIGVSEISKRLGELSVSRIYRIINTAKKNAS | -0.812
HMQVSDANQLTDVVKSIIKQYPVEVEKYKSGKKALFGFFMGKVMENLKGKSNPKILKNVLTEILD | 0.22
HMQVSDTNTLEQFAKEVIEANPKAVEDYHQNPLAIGFLVGQLMKVSKGSANPQTGKEILEKLL | -0.112
HMQVSDVTTIRALVEEVLSSSPQQLAQYRAGKLSLKGYFVGQVMKKGKGQLNAAAVNNLLDEIL | -2.41
HMQVSEQVQRLLDALENDTLTTKELMDRLGLKHRPTFRKNYLLPSMKLGLVEMTIPDKPNSSRQKYRRRQ | -0.566
HMQVTEVDYGTFMKMVEEKNVGEVEVGNSMIVFTDKDGKAIYKTGAMNDPNLTERLYNAGASFTKE | 0.144
